The target in test [1] is Recombinant soluble murine αMβ2 integrin (R&D Systems) (murine) (UniProt P05555). Briefly: ELISA, murine αMβ2 integrin coated, domain serially diluted, with calcium, rabbit anti-ACT detection. Background: In an ELISA, binding on a coated surface is turned into a signal by an enzyme label.
For test [2] the target is unchanged. Briefly: ELISA, murine αMβ2 integrin coated, ACT serially diluted, with calcium, rabbit anti-ACT detection.
The target in test [3] is αMβ2 integrin on J774A.1 murine macrophage cells (murine) (UniProt P05555). Put plainly: flow cytometry: biotinylated ACT on J774A.1 cells on ice, no scAb, detected with streptavidin-PE; background: cells only 274, non-biotinylated ACT 292. (Flow cytometry measures light scatter and fluorescence of single cells or particles in a stream.)

EC50 and mean fluorescence (PE-A) data for two substances are collected here from patent US20180256699A1.

By EC50 is commonly meant the concentration at which the effect is half-maximal.

Consider “RTX751*, RTX domain of ACT, residues 751-1706, acylated (from UniProt J7QLC0 751-1706)”, for which the EC50 in test [1] turned out to be 20 nM.
In the case of “Bordetella adenylate cyclase toxin (ACT), full-length, acylated (from UniProt J7QLC0 1-1706)”, the EC50 in test [2] turned out to be 20 nM. In addition, the mean fluorescence (PE-A) in test [3] worked out at 4810.
